The sequences below were run on Escherichia coli TOP10 (assay: shrunken log2 fold change of peptide-encoding DNA abundance (4.5 h post-induction vs induction); higher = less antimicrobial activity (less host growth inhibition)). Details: time post-induction: 4.5 h; library: site-saturation at positions 5, 18, 19, 20.
In the case of RRIRWRPPRLPRPRPRPVAMPRP, the “shrunken log2 fold change” value is reported as 0.427.
For RRIRHRPPRLPRPRPRPIGLPRP, the “shrunken log2 fold change” value was 0.0101.
In the case of RRIRRRPPRLPRPRPRPVFDPRP, the “shrunken log2 fold change” value is reported as 0.348.
In the case of RRIRCRPPRLPRPRPRPLAHPRP, the “shrunken log2 fold change” value is reported as -0.0666.
In the case of RRIRFRPPRLPRPRPRPFWYPRP, the “shrunken log2 fold change” value is reported as -0.102.
RRIRGRPPRLPRPRPRPLVCPRP was tested, and the “shrunken log2 fold change” value was 0.584.
In the case of RRIRGRPPRLPRPRPRPKNSPRP, the “shrunken log2 fold change” value is reported as 0.252.
RRIRVRPPRLPRPRPRPQGYPRP was tested, and the “shrunken log2 fold change” value was 0.0811.
RRIRNRPPRLPRPRPRPMKVPRP was tested, and the “shrunken log2 fold change” value was 0.0279.
With RRIRLRPPRLPRPRPRPMNHPRP the “shrunken log2 fold change” value was -0.409.
With RRIRDRPPRLPRPRPRPLEHPRP the “shrunken log2 fold change” value was -0.164.
RRIRMRPPRLPRPRPRPARWPRP was tested, and the “shrunken log2 fold change” value was 1.49.
With RRIRRRPPRLPRPRPRPGHWPRP the “shrunken log2 fold change” value was 0.0797.
With RRIRKRPPRLPRPRPRPSLDPRP the “shrunken log2 fold change” value was 0.183.
With RRIRGRPPRLPRPRPRPPQAPRP the “shrunken log2 fold change” value was 1.58.
RRIRRRPPRLPRPRPRPIHSPRP was tested, and the “shrunken log2 fold change” value was 0.0881.
With RRIRRRPPRLPRPRPRPFRHPRP the “shrunken log2 fold change” value was -0.212.
For RRIRTRPPRLPRPRPRPPFMPRP, the “shrunken log2 fold change” value was -0.194.
With RRIRPRPPRLPRPRPRPNGKPRP the “shrunken log2 fold change” value was -0.257.
RRIRRRPPRLPRPRPRPCFHPRP was tested, and the “shrunken log2 fold change” value was -0.00606.
With RRIRSRPPRLPRPRPRPGWYPRP the “shrunken log2 fold change” value was -0.118.
RRIRFRPPRLPRPRPRPVNWPRP was tested, and the “shrunken log2 fold change” value was 0.253.
RRIRTRPPRLPRPRPRPVFVPRP was tested, and the “shrunken log2 fold change” value was 0.0253.
RRIRWRPPRLPRPRPRPELRPRP was tested, and the “shrunken log2 fold change” value was 0.0333.
With RRIRIRPPRLPRPRPRPCSQPRP the “shrunken log2 fold change” value was -0.226.
In the case of RRIRARPPRLPRPRPRPDNAPRP, the “shrunken log2 fold change” value is reported as 0.311.
In the case of RRIRWRPPRLPRPRPRPFYWPRP, the “shrunken log2 fold change” value is reported as -0.151.
With RRIRMRPPRLPRPRPRPKCGPRP the “shrunken log2 fold change” value was 0.574.
In the case of RRIRCRPPRLPRPRPRPQQMPRP, the “shrunken log2 fold change” value is reported as 0.013.
In the case of RRIRPRPPRLPRPRPRPSLMPRP, the “shrunken log2 fold change” value is reported as -0.155.
With RRIRARPPRLPRPRPRPLLCPRP the “shrunken log2 fold change” value was 0.612.
RRIRLRPPRLPRPRPRPVGEPRP was tested, and the “shrunken log2 fold change” value was 0.12.
RRIRIRPPRLPRPRPRPILLPRP was tested, and the “shrunken log2 fold change” value was -0.266.
For RRIRSRPPRLPRPRPRPASAPRP, the “shrunken log2 fold change” value was 0.243.
For RRIRMRPPRLPRPRPRPGDLPRP, the “shrunken log2 fold change” value was -0.0671.
RRIRLRPPRLPRPRPRPQWHPRP was tested, and the “shrunken log2 fold change” value was -0.193.
RRIRCRPPRLPRPRPRPILKPRP was tested, and the “shrunken log2 fold change” value was -0.263.
For RRIRMRPPRLPRPRPRPHGNPRP, the “shrunken log2 fold change” value was -0.184.
With RRIRWRPPRLPRPRPRPEWTPRP the “shrunken log2 fold change” value was 0.0673.
For RRIRVRPPRLPRPRPRPENGPRP, the “shrunken log2 fold change” value was -0.158.
In the case of RRIRERPPRLPRPRPRPTMDPRP, the “shrunken log2 fold change” value is reported as 0.0537.
For RRIRDRPPRLPRPRPRPKSDPRP, the “shrunken log2 fold change” value was 0.295.
With RRIRCRPPRLPRPRPRPEIYPRP the “shrunken log2 fold change” value was -0.0456.
For RRIRVRPPRLPRPRPRPDKPPRP, the “shrunken log2 fold change” value was 0.028.
RRIRIRPPRLPRPRPRPDTMPRP was tested, and the “shrunken log2 fold change” value was -0.272.
In the case of RRIRMRPPRLPRPRPRPCSAPRP, the “shrunken log2 fold change” value is reported as 1.24.
With RRIRERPPRLPRPRPRPIWHPRP the “shrunken log2 fold change” value was -0.0406.
With RRIRARPPRLPRPRPRPFYNPRP the “shrunken log2 fold change” value was -0.44.
In the case of RRIRDRPPRLPRPRPRPCKYPRP, the “shrunken log2 fold change” value is reported as 0.0244.
With RRIRGRPPRLPRPRPRPSPWPRP the “shrunken log2 fold change” value was 0.392.
With RRIRYRPPRLPRPRPRPWTAPRP the “shrunken log2 fold change” value was -0.283.
RRIRERPPRLPRPRPRPRDGPRP was tested, and the “shrunken log2 fold change” value was 0.237.
With RRIRCRPPRLPRPRPRPIHTPRP the “shrunken log2 fold change” value was -0.527.
With RRIRYRPPRLPRPRPRPLGHPRP the “shrunken log2 fold change” value was 0.0209.
RRIRIRPPRLPRPRPRPFNSPRP was tested, and the “shrunken log2 fold change” value was -0.384.
For RRIRRRPPRLPRPRPRPVTSPRP, the “shrunken log2 fold change” value was 0.0312.
With RRIRGRPPRLPRPRPRPIYAPRP the “shrunken log2 fold change” value was 0.14.
For RRIRWRPPRLPRPRPRPAYTPRP, the “shrunken log2 fold change” value was 0.0906.
For RRIRQRPPRLPRPRPRPLKNPRP, the “shrunken log2 fold change” value was -0.237.
In the case of RRIRARPPRLPRPRPRPHGFPRP, the “shrunken log2 fold change” value is reported as -0.00228.
For RRIRFRPPRLPRPRPRPYSSPRP, the “shrunken log2 fold change” value was -0.571.
RRIRLRPPRLPRPRPRPWNQPRP was tested, and the “shrunken log2 fold change” value was 0.0295.
With RRIRERPPRLPRPRPRPDKLPRP the “shrunken log2 fold change” value was -1.81.
In the case of RRIRFRPPRLPRPRPRPGWTPRP, the “shrunken log2 fold change” value is reported as -0.115.
With RRIRIRPPRLPRPRPRPTLLPRP the “shrunken log2 fold change” value was -0.374.
For RRIRLRPPRLPRPRPRPRQFPRP, the “shrunken log2 fold change” value was 0.196.
In the case of RRIRIRPPRLPRPRPRPNIQPRP, the “shrunken log2 fold change” value is reported as -1.03.
In the case of RRIRARPPRLPRPRPRPRVMPRP, the “shrunken log2 fold change” value is reported as 0.197.
With RRIRFRPPRLPRPRPRPPRPPRP the “shrunken log2 fold change” value was 0.905.
With RRIRSRPPRLPRPRPRPTNTPRP the “shrunken log2 fold change” value was 0.0794.
RRIRWRPPRLPRPRPRPYQMPRP was tested, and the “shrunken log2 fold change” value was -0.0321.
With RRIRCRPPRLPRPRPRPRQFPRP the “shrunken log2 fold change” value was 0.0823.
In the case of RRIRARPPRLPRPRPRPGCCPRP, the “shrunken log2 fold change” value is reported as 0.841.
For RRIRPRPPRLPRPRPRPGFYPRP, the “shrunken log2 fold change” value was -0.421.
With RRIRVRPPRLPRPRPRPQPNPRP the “shrunken log2 fold change” value was -0.125.
RRIRCRPPRLPRPRPRPFPPPRP was tested, and the “shrunken log2 fold change” value was 0.0149.
With RRIRQRPPRLPRPRPRPRSTPRP the “shrunken log2 fold change” value was 0.203.
In the case of RRIRRRPPRLPRPRPRPISLPRP, the “shrunken log2 fold change” value is reported as -0.224.
In the case of RRIRKRPPRLPRPRPRPEECPRP, the “shrunken log2 fold change” value is reported as 0.00489.
RRIRQRPPRLPRPRPRPWVKPRP was tested, and the “shrunken log2 fold change” value was 0.0219.
For RRIRFRPPRLPRPRPRPKTFPRP, the “shrunken log2 fold change” value was -0.18.
With RRIRVRPPRLPRPRPRPDYKPRP the “shrunken log2 fold change” value was 0.105.
RRIRMRPPRLPRPRPRPYSHPRP was tested, and the “shrunken log2 fold change” value was -0.352.
For RRIRWRPPRLPRPRPRPFGQPRP, the “shrunken log2 fold change” value was -0.0338.
With RRIRMRPPRLPRPRPRPHCQPRP the “shrunken log2 fold change” value was -0.0624.
In the case of RRIRKRPPRLPRPRPRPVMFPRP, the “shrunken log2 fold change” value is reported as 0.124.
In the case of RRIRIRPPRLPRPRPRPAWPPRP, the “shrunken log2 fold change” value is reported as 0.339.
With RRIRPRPPRLPRPRPRPDWMPRP the “shrunken log2 fold change” value was -0.212.
For RRIRIRPPRLPRPRPRPNMRPRP, the “shrunken log2 fold change” value was -0.374.
RRIRSRPPRLPRPRPRPILKPRP was tested, and the “shrunken log2 fold change” value was -0.469.
For RRIRSRPPRLPRPRPRPEDEPRP, the “shrunken log2 fold change” value was -0.0488.
RRIRLRPPRLPRPRPRPKKQPRP was tested, and the “shrunken log2 fold change” value was -0.046.
RRIRPRPPRLPRPRPRPGHVPRP was tested, and the “shrunken log2 fold change” value was 0.564.
RRIRVRPPRLPRPRPRPRNDPRP was tested, and the “shrunken log2 fold change” value was -0.00857.
RRIRMRPPRLPRPRPRPMKTPRP was tested, and the “shrunken log2 fold change” value was -0.00191.
RRIRARPPRLPRPRPRPLIQPRP was tested, and the “shrunken log2 fold change” value was 0.0545.
For RRIRCRPPRLPRPRPRPIESPRP, the “shrunken log2 fold change” value was 0.204.
For RRIRCRPPRLPRPRPRPDVAPRP, the “shrunken log2 fold change” value was 0.298.
For RRIRVRPPRLPRPRPRPLLTPRP, the “shrunken log2 fold change” value was -0.0362.
With RRIRNRPPRLPRPRPRPTGLPRP the “shrunken log2 fold change” value was 0.0817.
With RRIRCRPPRLPRPRPRPPNIPRP the “shrunken log2 fold change” value was -0.573.
RRIRSRPPRLPRPRPRPGTMPRP was tested, and the “shrunken log2 fold change” value was -0.315.
With RRIRGRPPRLPRPRPRPIEPPRP the “shrunken log2 fold change” value was 0.491.
For RRIRHRPPRLPRPRPRPCGYPRP, the “shrunken log2 fold change” value was -0.0081.
RRIRQRPPRLPRPRPRPMAIPRP was tested, and the “shrunken log2 fold change” value was -0.326.
With RRIRTRPPRLPRPRPRPAFKPRP the “shrunken log2 fold change” value was 0.143.
RRIRDRPPRLPRPRPRPFSAPRP was tested, and the “shrunken log2 fold change” value was -0.36.
With RRIRARPPRLPRPRPRPVAKPRP the “shrunken log2 fold change” value was 0.577.
With RRIRFRPPRLPRPRPRPKEHPRP the “shrunken log2 fold change” value was -0.357.
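Note: peptides expressed intracellularly from a pBAD plasmid library in pooled LB shake-flask culture, induced with 0.3% L-arabinose, DNA abundance read by NGS, three biological replicates, DESeq2 with apeglm shrinkage.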
